According to paper PMC10883291:

What was measured:
Test in all cases: FRET or BRET; time-resolved FRET (Cisbio); FcγRs expressed on HEK293 cells (Tb donor cells); IgG-d2 acceptor conjugate displaced by the test antibodies; EC50 by the manufacturer's protocol
FcγR1 (CD64) (human) = FcγR1 (CD64) (human) (UniProt P12314)
FcγR2B (human) = FcγR2B (human) (UniProt P31994)
[1] = target: FcγR2A (CD32aH131) (human) (UniProt P12318)
[2] = target: FcγR3A (CD16aF158) (human) (UniProt P08637)
[3] = target: FcγR2A (CD32aR131) (human)
FcγR2A (CD32aR131) (human), sequence (P12318 34-317 H167R): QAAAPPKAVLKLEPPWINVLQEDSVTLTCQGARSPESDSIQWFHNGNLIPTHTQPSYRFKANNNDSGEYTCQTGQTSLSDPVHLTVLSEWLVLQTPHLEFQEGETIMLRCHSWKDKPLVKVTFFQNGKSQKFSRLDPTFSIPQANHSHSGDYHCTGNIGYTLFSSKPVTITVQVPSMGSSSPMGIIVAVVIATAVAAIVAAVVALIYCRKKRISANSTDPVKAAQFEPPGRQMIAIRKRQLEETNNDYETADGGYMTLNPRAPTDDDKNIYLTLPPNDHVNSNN

FcγR1 (CD64) (human), sequence (P12314 16-374): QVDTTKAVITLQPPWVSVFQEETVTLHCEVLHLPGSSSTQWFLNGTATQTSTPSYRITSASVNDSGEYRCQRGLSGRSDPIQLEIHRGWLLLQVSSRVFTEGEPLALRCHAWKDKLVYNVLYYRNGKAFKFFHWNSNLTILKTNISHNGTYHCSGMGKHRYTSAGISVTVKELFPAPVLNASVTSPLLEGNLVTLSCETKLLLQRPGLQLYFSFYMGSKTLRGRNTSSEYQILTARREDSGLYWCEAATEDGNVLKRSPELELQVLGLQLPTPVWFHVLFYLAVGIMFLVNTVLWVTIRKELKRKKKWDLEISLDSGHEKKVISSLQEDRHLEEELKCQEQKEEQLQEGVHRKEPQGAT
FcγR2A (CD32aH131) (human), sequence (P12318 34-317): as the sequence (P12318 34-317 H167R) above, with R134H counted along it
FcγR2B (human), sequence (P31994 43-310): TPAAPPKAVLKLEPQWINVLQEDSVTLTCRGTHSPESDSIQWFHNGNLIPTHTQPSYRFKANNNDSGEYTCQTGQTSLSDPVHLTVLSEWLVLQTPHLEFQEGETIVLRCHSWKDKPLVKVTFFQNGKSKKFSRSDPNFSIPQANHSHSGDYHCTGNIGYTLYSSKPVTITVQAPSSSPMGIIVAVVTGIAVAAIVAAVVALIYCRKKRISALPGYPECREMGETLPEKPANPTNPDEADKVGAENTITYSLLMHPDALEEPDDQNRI
FcγR3A (CD16aF158) (human), sequence (P08637 17-254): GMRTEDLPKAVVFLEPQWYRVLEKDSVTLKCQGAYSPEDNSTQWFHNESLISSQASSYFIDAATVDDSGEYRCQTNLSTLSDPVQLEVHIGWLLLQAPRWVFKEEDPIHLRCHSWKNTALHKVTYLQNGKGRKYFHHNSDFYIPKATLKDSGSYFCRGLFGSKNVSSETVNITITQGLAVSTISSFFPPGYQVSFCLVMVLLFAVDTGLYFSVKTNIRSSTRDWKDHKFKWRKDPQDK

Row | Substance | EC50 (FcγR1 (CD64) (human)) [nM] | EC50 (FcγR2B (human)) [nM] | EC50 [1] [nM] | EC50 [2] [nM] | EC50 [3] [nM]
1 | BMS-986351 (antibody) | 0.8 | 2480 | 200 | 1200 | 
2 | Rituximab (antibody) | 0.8 |  | 361 |  | 194
